Assay results published in patent publication WO2001079494A1.

B1: 12B5 antibody (IgG) (antibody, from another filing)
scFv: QVQLVQSGGGLVRPGGSLSLSCAVSGITLRTYGMHWVRQAPGKGLEWVAGISFDGRSEYYADSVQGRFTISRDSSKNTLYLQMNSLRAEDTAVYYCARGAHYGFDIWGQGTMVTVSSGGGGTGGGGSGGGGSDIQMTQSPSTLSASIGDRVTITCRASEGIYHWLAWYQQKPGKAPKLLIYKASSLASGAPSRFSGSGSGTDFTLTISSLQPDDFATYYCQQYSNYPLTFGGGTKLEIK
B2: 12B5 Fab (Fab, from another filing)
scFv: B1 scFv

Molecular target: human TPO receptor (MPL) expressed on Ba/F3 cells (human) (UniProt P40238)
Test: cell-based or functional assay

Binder	ED50, proliferation of BaF/Mpl cells (WST-8)
B1	0.029 µM
B2	34.7 µM
